# PMC9054839 (2022)
# B1: C-terminally ypet-tagged full-length talin WT [mouse] / paxillin (endogenous, fibroblasts) [mouse (endogenous in talin^1/2dko fibroblasts)] (parent complex)
# chain 1: MVALSLKISIGNVVKTMQFEPSTMVYDACRMIRERIPEALAGPPNDFGLFLSDDDPKKGIWLEAGKALDYYMLRNGDTMEYRKKQRPLKIRMLDGTVKTIMVDDSKTVTDMLMTICARIGITNHDEYSLVRELMEEKKDEGTGTLRKDKTLLRDEKKMEKLKQKLHTDDELNWLDHGRTLREQGVEEHETLLLRRKFFYSDQNVDSRDPVQLNLLYVQARDDILNGSHPVSFDKACEFAGFQCQIQFGPHNEQKHKAGFLDLKDFLPKEYVKQKGERKIFQAHKNCGQMSEIEAKVRYVKLARSLKTYGVSFFLVKEKMKGKNKLVPRLLGITKECVMRVDEKTKEVIQEWSLTNIKRWAASPKSFTLDFGDYQDGYYSVQTTEGEQIAQLIAGYIDIILKKKKSKDHFGLEGDEESTMLEDSVSPKKSTVLQQQYNRVGKVEHGSVALPAIMRSGASGPENFQVGSMPPAQQQITSGQMHRGHMPPLTSAQQALTGTINSSMQAVQAAQATLDDFETLPPLGQDAASKAWRKNKMDESKHEIHSQVDAITAGTASVVNLTAGDPAETDYTAVGCAVTTISSNLTEMSRGVKLLAALLEDEGGNGRPLLQAAKGLAGAVSELLRSAQPASAEPRQNLLQAAGNVGQASGELLQQIGESDTDPHFQDVLMQLAKAVASAAAALVLKAKSVAQRTEDSGLQTQVIAAATQCALSTSQLVACTKVVAPTISSPVCQEQLVEAGRLVAKAVEGCVSASQAATEDGQLLRGVGAAATAVTQALNELLQHVKAHATGAGPAGRYDQATDTILTVTENIFSSMGDAGEMVRQARILAQATSDLVNAIKADAEGESDLENSRKLLSAAKILADATAKMVEAAKGAAAHPDSEEQQQRLREAAEGLRMATNAAAQNAIKKKLVQRLEHAAKQAAASATQTIAAAQHAASAPKASAGPQPLLVQSCKAVAEQIPLLVQGVRGSQAQPDSPSAQLALIAASQSFLQPGGKMVAAAKASVPTIQDQASAMQLSQCAKNLGTALAELRTAAQKAQEACGPLEMDSALSVVQNLEKDLQEIKAAARDGKLKPLPGETMEKCTQDLGNSTKAVSSAIAKLLGEIAQGNENYAGIAARDVAGGLRSLAQAARGVAALTSDPAVQAIVLDTASDVLDKASSLIEEAKKASGHPGDPESQQRLAQVAKAVTQALNRCVSCLPGQRDVDNALRAVGDASKRLLSDSLPPSTGTFQEAQSRLNEAAAGLNQAATELVQASRGTPQDLARASGRFGQDFSTFLEAGVEMAGQAPSQEDRAQVVSNLKGISMSSSKLLLAAKALSTDPASPNLKSQLAAAARAVTDSINQLITMCTQQAPGQKECDNALRQLETVRELLENPVQPINDMSYFGCLDSVMENSKVLGEAMTGISQNAKNGNLPEFGDAIATASKALCGFTEAAAQAAYLVGVSDPNSQAGQQGLVEPTQFARANQAIQMACQSLGEPGCTQAQVLSAATIVAKHTSALCNSCRLASARTANPTAKRQFVQSAKEVANSTANLVKTIKALDGDFTEENRAQCRAATAPLLEAVDNLSAFASNPEFSSVPAQISPEGRAAMEPIVISAKTMLESAGGLIQTARALAVNPRDPPRWSVLAGHSRTVSDSIKKLITSMRDKAPGQLECETAIAALNSCLRDLDQASLAAVSQQLAPREGISQEALHTQMLTAVQEISHLIEPLASAARAEASQLGHKVSQMAQYFEPLTLAAVGAASKTLSHPQQMALLDQTKTLAESALQLLYTAKEAGGNPKQAAHTQEALEEAVQMMTEAVEDLTTTLNEAASAAGVVGGMVDSITQAINQLDEGPMGDPEGSFVDYQTTMVRTAKAIAVTVQEMVTKSNTSPEELGPLANQLTSDYGRLASQAKPAAVAAENEEIGAHIKHRVQELGHGCSALVTKAGALQCSPSDVYTKKELIECARRVSEKVSHVLAALQAGNRGTQACITAASAVSGIIADLDTTIMFATAGTLNREGAETFADHREGILKTAKVLVEDTKVLVQNAAGSQEKLAQAAQSSVATITRLADVVKLGAASLGAEDPETQVVLINAVKDVAKALGDLISATKAAAGKVGDDPAVWQLKNSAKVMVTNVTSLLKTVKAVEDEATKGTRALEATTEHIRQELAVFCSPEPPAKTSTPEDFIRMTKGITMATAKAVAAGNSCRQEDVIATANLSRRAIADMLRACKEAAFHPEVAPDVRLRALHYGRECANGYLELLDHVLLTLQKPNPDLKQQLTGHSKRVAGSVTELIQAAEAMKGTEWVDPEDPTVIAENELLGAAAAIEAAAKKLEQLKPRAKPKEADESLNFEEQILEAAKSIAAATSALVKAASAAQRELVAQGKVGAIPANALDDGQWSQGLISAARMVAAATNNLCEAANAAVQGHASQEKLISSAKQVAASTAQLLVACKVKADQDSEAMKRLQAAGNAVKRASDNLVKAAQKAAAFEDQENETVVVKEKMVGGIAQIIAAQEEMLRKERELEEARKKLAQIRQQQYKFLPSELRDEH
# chain 2: not shown
# Variants of: B1
# Assay: anti-GFP immunoprecipitation, western blot quantification; talin1/2dKO fibroblasts, N = 3; parent: 1; read off a plot
row,ratio to parent,Variant
1,~0.44,"chain 1 A680E, chain 1 K687E"
2,~0.28,"chain 1 A680E, chain 1 K687E, chain 1 T2126E, chain 1 K2133E"
3,~0.69,"chain 1 T2126E, chain 1 K2133E"
